Our source for the amyloid nucleation score values is the supplement of paper PMC12042874.

± gives the uncertainty stated by the source.

This data set is described as follows: amyloid nucleation score (Sup35N fusion, yeast selection) (log enrichment); library NNK3; higher = more nucleation; inactive = no reads after selection. Summed up:
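Nucleation score is defined as the DiMSum log enrichment of output over input reads, with centring on the mode score of non-aggregating sequences. A minimum of 100 input reads was required for each sequence. Reads came from Illumina sequencing of plasmid inserts from psi-negative yeast expressing Sup35N fused to peptides of 20 random codons, induced with 100 μM copper sulfate for 24 hours and grown 7 days at 30°C on medium lacking adenine and uracil.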
Take CPFLILIFGYPK: the amyloid nucleation score entry is “inactive”.

With MMLFNSMWDIFCLMDGLH, the amyloid nucleation score result was “inactive”.

With WVFISKQLVNDVAWPVLCAL, the amyloid nucleation score is -0.17 ± 0.85.

Turning to TIYLDNTQLSLFRIGPVARR, the amyloid nucleation score is 1.9 ± 0.094.

SYVPSTMIRMIWIMAFHRGN yielded an amyloid nucleation score of -0.024 ± 0.43.

As for SGLKMCYLSTGEKSAHAGEV, the amyloid nucleation score result is “inactive”.

With VLCLVAGDYMNELIGGKGKV, the amyloid nucleation score entry was “inactive”.

Take FHVVFCDID: the amyloid nucleation score entry was “inactive”.

For the substance FLVDVYSCVCSILLWV, the amyloid nucleation score result was “inactive”.

Consider CTSAKIICHQSMRTRCTEQD, for which the amyloid nucleation score result is “inactive”.

Regarding RFRKG, the amyloid nucleation score entry is “inactive”.

For the substance FMVCCICGKYGMMVSC, the amyloid nucleation score result was “inactive”.

Turning to FQNPFTPFGLVVRYVPWLCW, the amyloid nucleation score entry was “inactive”.

Take LLFDDKCYGLVVDNYRYANI: the amyloid nucleation score entry was “inactive”.

SVYTGISLSKFHGSPLVRV: the amyloid nucleation score was -0.408 ± 1.2.

For RPWPYSYTNWDLCWLMAMPN, the amyloid nucleation score entry was “inactive”.

DRYYDSLC: the amyloid nucleation score result is “inactive”.

For the substance TQCSNTGCCIEGNLT, the amyloid nucleation score result is “inactive”.

Consider CGMLTGVIKNLDLTRRYKC, for which the amyloid nucleation score result was “inactive”.

For NSTINAPRLTRPGGPCSRKV, the amyloid nucleation score result is “inactive”.

With SLNKWVGCRSRIRWDLGTQF, the amyloid nucleation score result is “inactive”.

As to EYMYIYPPFPMPWDDG, the amyloid nucleation score entry was “inactive”.

For SDYTYFYM, the amyloid nucleation score result was “inactive”.

Consider TMSLTDYLCGCSWFWCKTSR, for which the amyloid nucleation score entry is “inactive”.

For ELDAYIRRGLCSLKWCRKLN, the amyloid nucleation score result was “inactive”.

GFLVNSISFSKSCYEHTIVW: the amyloid nucleation score entry is “inactive”.

As for SLLDDRSPGLWILKTKVTAF, the amyloid nucleation score entry is “inactive”.

In turn, FEETIINFCRYLFMMFTGVV had an amyloid nucleation score of 1.87 ± 0.1.

For the substance TWLRSYMLYYVVWFF, the amyloid nucleation score result is “inactive”.

Consider YTSRFSSCLWESRSDEGRNM, for which the amyloid nucleation score result was “inactive”.

As for CRCRFLAVWWNSVGYNDGVG, the amyloid nucleation score result is “inactive”.

On to LSYLC, for which the amyloid nucleation score entry was “inactive”.

For NVFSFFTTSSEKGLCPPRRS, the amyloid nucleation score result is “inactive”.

As for GSHNAMLSAISADAGAWQRE, the amyloid nucleation score result is “inactive”.

Turning to SVDSREMHSVCCKSLLFGFD, the amyloid nucleation score result is “inactive”.

For the substance VFVMPDDNVC, the amyloid nucleation score result is “inactive”.

Consider GDPNPHYL, for which the amyloid nucleation score result was “inactive”.

Regarding VVHKNRLMKFHRFLILYSEG, the amyloid nucleation score entry is “inactive”.

As for VDVQVINLAFETFECCAFIK, the amyloid nucleation score was found to be 0.82 ± 0.16.

ESSISTLFIFNMVGPQ yielded an amyloid nucleation score of 2.21 ± 0.068.

LYLFTPVWDFNCLPFGLAYK: the amyloid nucleation score entry was “inactive”.

Consider MPLYCNKMGCPLGKGMHMCH, for which the amyloid nucleation score entry was “inactive”.

SISWRYATTSDVSLWIFVQT: the amyloid nucleation score result was “inactive”.

For the substance LTLISGIAFLCLLLDNHNTV, the amyloid nucleation score result is “inactive”.

Regarding RYMFVVRTMPV, the amyloid nucleation score entry was “inactive”.

Substance DLRLFFRRRGISQLDC had an amyloid nucleation score of 0.356 ± 0.26.

For the substance ETGLLFGWDRVSSYWGVLKT, the amyloid nucleation score entry was “inactive”.

Consider IYVVACGSR, for which the amyloid nucleation score entry was “inactive”.

For the substance HYWYE, the amyloid nucleation score entry was “inactive”.

For FSGVLLNVYYGIHYTISIYR, the amyloid nucleation score result is “inactive”.

IFVLQGRKYSSTSWLITHHC: the amyloid nucleation score entry is “inactive”.

In the case of SKRFAIAEQVCNSF, the amyloid nucleation score result is “inactive”.

As to YEYYGVKRCIVLG, the amyloid nucleation score result was “inactive”.

On to GCIDEDCGVLIIKFYNIRRY, for which the amyloid nucleation score is 0.118 ± 0.59.

Regarding YYVSYN, the amyloid nucleation score result is “inactive”.

With ISNHLVVEYVRWIKSKLLGR, the amyloid nucleation score result is “inactive”.

For the substance HLLRCYMFIVDEVCWSVVAR, the amyloid nucleation score entry is “inactive”.

LNLETLISWLSVCPRGRTEE: the amyloid nucleation score entry was “inactive”.

Consider ELAFMNYYNNECSRPLLSSP, for which the amyloid nucleation score result is “inactive”.

As for SITDESASPPSRWKLGRFR, the amyloid nucleation score result was “inactive”.

Turning to SDLASASFCGH, the amyloid nucleation score is 0.676 ± 0.2.

ELMHFLAFVGDAMYVLSGII: the amyloid nucleation score entry was “inactive”.

The substance HFSFLL displayed an amyloid nucleation score of 1.37 ± 0.084.

Regarding MTVPTCHNDASARLMLRLLG, the amyloid nucleation score result was “inactive”.

Consider INLGKTSIRSIDRNNVCMLG, for which the amyloid nucleation score entry is “inactive”.

On to LYPFSGESQA, for which the amyloid nucleation score entry was “inactive”.

TNVLCRSTKNVFYTKGL came in with an amyloid nucleation score of 0.368 ± 0.17.

For SRVWMITRLFGTMA, the amyloid nucleation score entry is “inactive”.

Turning to RIVGEYSLKGCEVNVSWVKS, the amyloid nucleation score entry was “inactive”.

Take HSCCDEWRDNGEIGNSSNRE: the amyloid nucleation score result is “inactive”.

Turning to DLNIKYMVWACTSVRDCRYY, the amyloid nucleation score is 1.01 ± 0.085.

As for VTMFDLVSM, the amyloid nucleation score entry is “inactive”.

Regarding FNVLNVNS, the amyloid nucleation score result is “inactive”.

Take SITRELGNETLYSLLGPRAF: the amyloid nucleation score entry was “inactive”.

For the substance SVTWSHFGNWVRGAGLVMHR, the amyloid nucleation score was 0.259 ± 0.39.

WIVLQTSNSRLMQWGAP: the amyloid nucleation score amounted to 0.618 ± 0.27.

In turn, TYFILSDCQASNIFSPMSDE gave an amyloid nucleation score of 0.478 ± 0.14.

With STLGTRSRDFLMIFSNRSTE, the amyloid nucleation score result is “inactive”.

Turning to KPTIDIKCFCSWVYLKVLRG, the amyloid nucleation score result was “inactive”.

With TRYIIMCPILCRSEMVLPVR, the amyloid nucleation score entry was “inactive”.

With RIHSYAYPCQFFRLDYGGGQ, the amyloid nucleation score is 0.703 ± 0.13.

Consider GLSNRTFSMISSLVRDTKRS, for which the amyloid nucleation score entry is “inactive”.

MGMVFHME: the amyloid nucleation score entry was “inactive”.

Regarding GEFYCVVLRQYVWAQDDAG, the amyloid nucleation score entry is “inactive”.

For LLVPILCPFKV, the amyloid nucleation score entry was “inactive”.

On to VSNVSGSIHWGNFCAMNIAV, for which the amyloid nucleation score entry was “inactive”.

For SVLCMGLHEIQYIRRFCRHW, the amyloid nucleation score result was “inactive”.

Take ASLMERSIMYFVLVNNPRSE: the amyloid nucleation score turned out to be 0.355 ± 0.29.

In the case of TCFKM, the amyloid nucleation score result is “inactive”.

LLMFHCQMMSLGGYTSVSAR: the amyloid nucleation score result is “inactive”.

Regarding SMDTSTPTIV, the amyloid nucleation score result is “inactive”.

For the substance HNLLEETLTWCNIGRGWDD, the amyloid nucleation score result was “inactive”.

On to WVVQE, for which the amyloid nucleation score is -0.553 ± 0.93.

For the substance PEMSSSGAKAKYPTSMTS, the amyloid nucleation score result is “inactive”.

For DITRMVNNKFIWSSVSGLAC, the amyloid nucleation score entry was “inactive”.

With TVWKGIREYSRS, the amyloid nucleation score result is “inactive”.

Regarding ANSTNKQC, the amyloid nucleation score entry is “inactive”.

Take PVLLIRSKFDQRRAWSFHTV: the amyloid nucleation score result was “inactive”.

On to GLRKMRGLTQ, for which the amyloid nucleation score entry was “inactive”.

Take DERKPVGSHDGYSYVSVVTR: the amyloid nucleation score result was “inactive”.

As for YGLIRYPLFIFSALVTT, the amyloid nucleation score result is “inactive”.

As for AIRKL, the amyloid nucleation score entry was “inactive”.

For LDFVYCNAVFWTLNGFLNCA, the amyloid nucleation score came out at 1.78 ± 0.078.

In the case of VGNNWS, the amyloid nucleation score entry was “inactive”.

As to SQCGLTHSLVVGGSSVNTHT, the amyloid nucleation score entry was “inactive”.

Turning to IGVDVTYSKGLSGTIDKSLG, the amyloid nucleation score result was “inactive”.

Regarding LSPARQLTLLGDKNPANNIL, the amyloid nucleation score result is “inactive”.

With LCMMMPRIIQFICHSYEHVD, the amyloid nucleation score entry is “inactive”.

Take LWSLHMESDWGVRIHSRSLI: the amyloid nucleation score result was “inactive”.

In the case of VDLGRWFSSGFVWLGYKDIF, the amyloid nucleation score result is “inactive”.

With KYSYFFVRKTMLDCSFTEAW, the amyloid nucleation score was 0.771 ± 0.19.

FSSFLISYRYLIVFRQMVSI: the amyloid nucleation score result is “inactive”.

Substance LWGAYLLNCGNMRYCMYISG had an amyloid nucleation score of 0.803 ± 0.2.

Consider QLRGGVHMMHVCACGVDWWM, for which the amyloid nucleation score result is “inactive”.

As to RYLFRFYSRDVVSMMQ, the amyloid nucleation score result was “inactive”.

Turning to SRFLRMASGYWSN, the amyloid nucleation score entry is “inactive”.

As for VMLNLQI, the amyloid nucleation score is 1.18 ± 0.17.

With DFSYRENYVPIDGIRLTVFW, the amyloid nucleation score entry is “inactive”.

With LGLRHDICITDRINSGLRGS, the amyloid nucleation score entry was “inactive”.

Consider LADLLLCDLRDCRRSAVGRM, for which the amyloid nucleation score entry is “inactive”.

Consider GRDAVLI, for which the amyloid nucleation score is -0.785 ± 1.1.

In turn, GHLESVFRSVDTLVSYSS gave an amyloid nucleation score of 0.138 ± 0.55.

On to CRYLICVGS, for which the amyloid nucleation score result is “inactive”.

Take TKEAY: the amyloid nucleation score result was “inactive”.

As to TCHIRKWSEGWLKYMDCRSP, the amyloid nucleation score entry was “inactive”.

Consider VLPRRTLACIKRTNKASETV, for which the amyloid nucleation score entry is “inactive”.

The substance ETYNRR displayed an amyloid nucleation score of -0.227 ± 0.69.

Consider TLVFHISFGDLVHEILNCAV, for which the amyloid nucleation score was found to be 2.17 ± 0.088.

Regarding SFFTYRPQMMRCLSAIYTRM, the amyloid nucleation score entry is “inactive”.

In the case of MPPLNNCLDPYFLVCCNMVY, the amyloid nucleation score entry was “inactive”.

Turning to GASKHT, the amyloid nucleation score was determined as 0.319 ± 0.33.

Consider RCLYTCPYADFSEPNSNLRQ, for which the amyloid nucleation score result is “inactive”.
